For 1 substance, enrichment results are on record in publication PMC12772958.

In the test the target is PLEKHO2. Nature of the test: BioID in situ proximity labelling, streptavidin pulldown, mass spectrometry (LFQ). Particulars: U937 stable cell lines; biotin 24 h; n=3; read off a plot.

Consider “BirA*–MYO1F tail (from UniProt O00160) K770A; R780A”, for which the enrichment is 5.2.
